The source of these data is publication PMC8463877, “The binding of the small heat-shock protein αB-crystallin to fibrils of α-synuclein is driven by entropic forces” (Proceedings of the National Academy of Sciences of the …, 2021).

Conditions in all cases: both partners purified
Assay [1] addresses T1, α-synuclein amyloid fibrils (unlabeled) (UniProt P37840 1-140). The assay is described as follows: microfluidic diffusional sizing; kinetics in free solution, 1 μM GFP-αB-c with 10 μM α-syn fibrils, 7 °C, PBS pH 7.2, 0.1 % NaN3; koff calculated from the association kinetics.
Assay [2] addresses T1, α-synuclein amyloid fibrils (unlabeled). The assay is described as follows: microfluidic diffusional sizing; kinetics in free solution, 1 μM GFP-αB-c with 10 μM α-syn fibrils, 20 °C, PBS pH 7.2, 0.1 % NaN3; apparent constants, KD from koff/kon.
For assay [3] the target is unchanged. Kind of assay: microfluidic diffusional sizing; dissociation of bound αB-c followed in a saturated α-syn fibril solution at 7 °C.
For assay [4] the target is unchanged. The assay is described as follows: microfluidic diffusional sizing; equilibrium titration, 1 to 100 μM α-syn fibrils with 1 μM αB-c, 25 °C, 3 d, PBS pH 7.2, 0.1 % NaN3; noncooperative single-site model, binding-site ratio 1:5.4 fixed; apparent.
For assay [5] the target is unchanged. Kind of assay: microfluidic diffusional sizing; kinetics in free solution, 1 μM GFP-αB-c with 10 μM α-syn fibrils, 25 °C, PBS pH 7.2, 0.1 % NaN3; aliquots over 50 to 150 h; second-order rate equation; apparent constants, KD from koff/kon, per monomer equivalent of αB-c.
Assay [6] has the same target. Kind of assay: microfluidic diffusional sizing; global analysis of the kinetics at 7, 10, 17, 20, 25, 30 and 37 °C: binding-site concentration fitted globally; nonlinear van't Hoff analysis of KD,app, reference temperature 310 K (37 °C value not used).

B1: GFP-labeled αB-crystallin (αB-c-TEV site-GFP-His tag) (natural protein)
chain: MDIAIHHPWIRRPFFPFHSPSRLFDQFFGEHLLESDLFPTSTSLSPFYLRPPSFLRAPSWFDTGLSEMRLEKDRFSVNLDVKHFSPEELKVKVLGDVIEVHGKHEERQDEHGFISREFHRKYRIPADVDPLTITSSLSSDGVLTVNGPRKQVSGPERTIPITREEKPAVTAAPKK
notes: αB-crystallin, small heat-shock protein; Arrangement as printed: αB-c-TEV site-GFP-His tag; a TEV site lies between αB-c and GFP; Present as a polydisperse ensemble of oligomers; concentrations are in monomer equivalents; also called αB-c-GFP; small heat-shock protein αB-crystallin; not shown: GFP, C-terminal, kept
B1: the koff (usually a measure of how fast the partners let go of each other) in assay [1] was 2.6e-05 s⁻¹; in assay [3] it was 5.6e-05 s⁻¹; in assay [5] it was 2.7e-06 s⁻¹. The Kd was 4100 ± 1700 nM in assay [2], 261 ± 76 nM in assay [4] and 373 ± 238 nM in assay [5]. In addition, the kon – broadly, a measure of how fast the partners come together – in assay [5] came out at 7.1 ± 2.6 M⁻¹ s⁻¹. In addition, the dH in assay [6] came to 443 ± 107 kJ⋅mol^−1. Besides, the “stoichiometry N” value in assay [6] was 5.4 α-syn equivalents per αB-c equivalent.
